The results in this text go back to patent US20220098290A1 (JUNTENDO EDUCATIONAL FOUNDATION, published 2022).

A word on the Kd: it is the equilibrium constant for the complex coming apart.

The target in experiment [1] is T1, peptide having cysteine at the amino-terminal of the amino acid sequence (RRMMRTKMR) included in SEQ ID NO: 1.
T1 peptide: CRRMMRTKMR
The experiment in a line: SPR. (SPR reads the build-up and loss of mass on a sensor chip optically.)

In experiment [2] the target is T2, Del 52 type mutant CALR protein (full-length) (human, UniProt P27797 18-417).
T2 construct: mature; also called 52-nucleotide deletion type; CALR Del 52
T2 sequence (looked up): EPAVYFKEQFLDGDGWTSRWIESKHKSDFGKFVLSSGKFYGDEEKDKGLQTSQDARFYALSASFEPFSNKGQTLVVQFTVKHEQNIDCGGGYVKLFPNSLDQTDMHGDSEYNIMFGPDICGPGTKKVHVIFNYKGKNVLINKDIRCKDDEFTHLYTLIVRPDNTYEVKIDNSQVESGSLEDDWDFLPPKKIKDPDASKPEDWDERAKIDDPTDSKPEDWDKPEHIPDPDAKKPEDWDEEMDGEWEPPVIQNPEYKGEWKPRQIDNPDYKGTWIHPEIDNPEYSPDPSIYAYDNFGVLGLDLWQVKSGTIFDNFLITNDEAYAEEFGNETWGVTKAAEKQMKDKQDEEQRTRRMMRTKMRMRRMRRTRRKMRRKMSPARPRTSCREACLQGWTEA
Kind of experiment: immunoblotting and ELISA on Del 52 and its alanine mutants. The method, then:
It was verified that clone B3, C6, and G1 antibodies recognize the amino acid sequence used as an antigen on the mutant CALR protein. The reactivities of the respective antibodies against mutant CALR proteins each having alanine substituted for one amino acid at each position of the amino acids used as the antigen and the amino acids around it were evaluated by immunoblotting (FIG. 13A) and ELISA (FIG. 13B).
The Del 52 type mutant CALR proteins each having alanine (A) substituted for one amino acid at each position of the amino acids in the region from the 367th threonine (T) to the 378th arginine (R) or the protein not having substitution were expressed in HEK 293T cells, and culture supernatants containing secreted mutant CALR proteins were prepared by centrifugation (1,600 g×5 min, 4° C.). The resulting protein solutions were each heat-treated in the presence of SDS and a reducing agent, then developed on a gel by SDS polyacrylamide electrophoresis, electrically transferred on a PVDF membrane, and reacted with a TBS-T solution containing 5% skimmed milk at room temperature for 1 hour, followed by reaction with a 5% BSA/TBS-T solution containing a peroxidase-labeled clone B3, C6, or G1 antibody or a mouse anti-CALR antibody (Abcam plc., Cat #ab22683) at 4° C. overnight. The PVDF membrane reacted with the mouse anti-CALR antibody was washed with a TBS-T solution and was then reacted with a 5% skimmed milk/TBS-T solution containing a peroxidase-labeled anti-mouse IgG antibody (Jackson Immuno Research Inc., Cat #115-035-003) at room temperature for 1 hour. Subsequently, all of the PVDF membranes were washed with a TBS-T solution and were then reacted with a peroxidase luminescence reagent (Thermo Fisher Scientific K.K., Cat #34094). The resulting signals were detected using a FUSION image pickup apparatus (manufactured by Vilber-Lourmat S.A.).
On the technique in general: In western blotting, separated proteins are transferred to a membrane and probed.

Experiment [3] concerns the target T3, peptide having cysteine at the amino-terminal of the amino acid sequence (RRMMRTKMR) included in SEQ ID NO: 1.
T3 construct: Synthetic peptide, analyte in SPR; also called antigen used for production of the antibody
T3 peptide: CRRMMRTKMR
The experiment in a line: SPR (Biacore T200), clone B3 antibody immobilised, peptide at 1.25-20 nM. The method, then:
Sensor chips (GE Healthcare, Cat #BR100530) for surface plasmon resonance analysis were loaded on a surface plasmon resonance analyzer Biacore T200 (GE Healthcare) and were equilibrated with an HBS-EP buffer (GE Healthcare, Cat #BR100669). Clone B3 antibody adjusted to a concentration of 10 μg/mL with Acetate 5.5 (GE Healthcare, Cat #BR100352) was immobilized using an Amine coupling kit (GE Healthcare, Cat #BR100050) at an immobilized amount of 200 RU. Subsequently, surface plasmon resonance was measured using a peptide having cysteine at the amino-terminal of the amino acid sequence ([…]) included in SEQ ID NO: 1 adjusted to concentrations of 20, 10, 5, 2.5, and 1.25 nM with an HBS-EP buffer, and the dissociation constant was acquired with Biacore T200 Evaluation Software.

Substitutions are numbered along the chain they refer to.

B1: clone B3 antibody (antibody, V domains shown)
VH: QVQLQQSGAELVKPGSSVKISCKASGYTFTRNFIHWIKQQPGNGLEWIGWIFPGDGDTEYNQKFNGKATLTADKSSSTAYMQLSSLTSEDSAVYFCARGNYNYEYFDYWGQGVMVTVSS
VL: DIQMTQSPASLSASLGETVSIECLASEDIYSYLAWYQQKPGKSPQLLIFAANRLQDGVPSRFSGSGSGTQFSLKISGMQPEDEGDYFCLQGSKFPYTFGPGTKLELN
notes: Rat monoclonal antibody purified from a hybridoma (WKY/Izm rat x mouse SP2 myeloma), detected with anti-rat IgG; also called rat clone B3 antibody
In turn, B1 displayed a Kd in experiment [1] of 0.855 nM. Moreover, the binding result in experiment [2] and in experiment [3] was “binds” each time.

B2: clone C6 antibody (antibody, V domains shown)
VH: QVQLQQSGAELVKPGSSVKISCKASGYTFTSYFVHWIKQQPGDGLEWIGWIYPGDGDTEYNHKFNGKSTLTADRSSSTAYMQLSSLTSEDSAVYFCARGNYYDGREVMDAWGQGASVTVSS
VL: DVVLTQTPPTLSATIGQSVSISCRSSQSLLDSDGETYLNWLLQRPGQSPQLLIYSVSNLESGVPNRFSGSGSETDFTLKISGMEAEDLGVYYCMQATHGPYTFGAGTKLELK
notes: Rat monoclonal antibody purified from a hybridoma, detected with anti-rat IgG; also called rat clone C6 antibody
In the case of B2, the binding result in experiment [2] is reported as “binds”.

B3: clone G1 antibody (antibody, V domains shown)
VH: B2 VH with H62Q, S68A
VL: B2 VL with S48C, M83V, A96G
notes: Rat monoclonal antibody purified from a hybridoma, detected with anti-rat IgG; also called rat clone G1 antibody
On to B3, for which, in experiment [2], the binding result is on record as “binds”.
